Measured values as given in PMC8302205.

B1: EanB (Chlorobium limicola DSM 245) (protein)
chain: MQNKNFRAPQSEAIGILYKLIETGSKHKNMYDHTEITTDSLLALLGSEKVKIIDVRSADAYNGWRMRGEVRGGHIKGAKSLPAKWLTDPEWLNIVRFKQIRPEDAIVLYGYTPEECEQTATRFKENGYNNVSVFHRFHPDWTGNDAFPMDRLEQYNRLVPAEWVNGLISGEEIPEYDNDTFIVCHAHYRNRDAYLSGHIPGATDMDTLALESPETWNRRTPEELKKALEEHGITASTTVVLYGKFMHPDNADEFPGSAAGHIGAIRLAFIMMYAGVEDVRVLNGGYQSWTDAGFAISKDDVPKTTVPEFGAPIPSRPEFAVDIDEAKEMLQSEDSDLVCVRSYPEYIGEVSGYNYIKKKGRIPGAIFAECGSDAYHMENYRNHDHTTREYHEIEDIWAKSGIIPKKHLAFYCGTGWRGSEAWFNALLMGWPRVSVYDGGWFEWSNDPENPYETGVPK
B2: EanB (Chlorobium limicola DSM 245; C116A/C184A/C339A/C370A) (protein)
chain: MQNKNFRAPQSEAIGILYKLIETGSKHKNMYDHTEITTDSLLALLGSEKVKIIDVRSADAYNGWRMRGEVRGGHIKGAKSLPAKWLTDPEWLNIVRFKQIRPEDAIVLYGYTPEEAEQTATRFKENGYNNVSVFHRFHPDWTGNDAFPMDRLEQYNRLVPAEWVNGLISGEEIPEYDNDTFIVAHAHYRNRDAYLSGHIPGATDMDTLALESPETWNRRTPEELKKALEEHGITASTTVVLYGKFMHPDNADEFPGSAAGHIGAIRLAFIMMYAGVEDVRVLNGGYQSWTDAGFAISKDDVPKTTVPEFGAPIPSRPEFAVDIDEAKEMLQSEDSDLVAVRSYPEYIGEVSGYNYIKKKGRIPGAIFAEAGSDAYHMENYRNHDHTTREYHEIEDIWAKSGIIPKKHLAFYCGTGWRGSEAWFNALLMGWPRVSVYDGGWFEWSNDPENPYETGVPK

Substrate: C[N+](C)(C)[C@@H](Cc1cnc[nH]1)C(=O)[O-]
Test: purified protein
Format: biochemical, Chlorobium limicola
Details: 0.116 mM K2Sx, 50 mM KPi pH 8.0, 25 °C

| Protein | Km | kcat | Km (EanB C412-only variant) | kcat (EanB C412-only variant) |
| --- | --- | --- | --- | --- |
| B1 | 69.7 ± 8.7 µM | 0.0113 ± 0.00017 s⁻¹ | – | – |
| B2 | – | – | 65.9 ± 3.4 µM | 0.0025 ± 0.00017 s⁻¹ |
